From the Human Domainome abundance scans (Beltran et al. 2025)
± gives the uncertainty stated by the source.

B1: Far upstream element-binding protein 2, residues 142 to 214; numbered along this chain, Q92945 (parent)
chain: RTSMTEEYRVPDGMVGLIIGRGGEQINKIQQDSGCKVQISPDSGGLPERSVSLTGAPESVQKAKMMLDDIVSR

Variants of: B1
Assay: abundance fitness (aPCA) (normalised: wild type 0, dead -1); higher = more abundant; growth selection in yeast, the domain comes from the species named
Conditions: Homo sapiens

RTSMTEEYRVPDGMVGLIIGRGGEQINKIQQDSMCKVQISPDSGGLPERSVSLTGAPESVQKAKMMLDDIVSR [G34M] and RTSMTEEYRVPDGMVGLIIGRGGEQINKIQQDSCCKVQISPDSGGLPERSVSLTGAPESVQKAKMMLDDIVSR [G34C] are within error of each other in abundance fitness: -0.391 ± 0.074 for the first, -0.356 ± 0.077 for the second.

Compared with RTSMTEEYRVPDGMVGLIIGRGGEQINKIQQDSSCKVQISPDSGGLPERSVSLTGAPESVQKAKMMLDDIVSR [G34S], RTSMTEEYRVPDGMVGLIIGRGGEQINKIQQDSFCKVQISPDSGGLPERSVSLTGAPESVQKAKMMLDDIVSR [G34F] is lower in abundance fitness: -0.357 ± 0.061 for the first, -0.887 ± 0.2 for the second.

Compared with RTSMTEEYRVPDGMVGLIIGRGGEQINKIQQDSPCKVQISPDSGGLPERSVSLTGAPESVQKAKMMLDDIVSR [G34P], RTSMTEEYRVPDGMVGLIIGRGGEQINKIQQDSQCKVQISPDSGGLPERSVSLTGAPESVQKAKMMLDDIVSR [G34Q] is higher in abundance fitness: -1.16 ± 0.13 for the first, -0.247 ± 0.07 for the second.

RTSMTEEYRVPDGMVGLIIGRGGEQINKIQQDSHCKVQISPDSGGLPERSVSLTGAPESVQKAKMMLDDIVSR [G34H] and RTSMTEEYRVPDGMVGLIIGRGGEQINKIQQDSKCKVQISPDSGGLPERSVSLTGAPESVQKAKMMLDDIVSR [G34K] are within error of each other in abundance fitness: -0.384 ± 0.1 for the first, -0.319 ± 0.068 for the second.

Going from RTSMTEEYRVPDGMVGLIIGRGGEQINKIQQDSYCKVQISPDSGGLPERSVSLTGAPESVQKAKMMLDDIVSR [G34Y] to RTSMTEEYRVPDGMVGLIIGRGGEQINKIQQDSDCKVQISPDSGGLPERSVSLTGAPESVQKAKMMLDDIVSR [G34D], the abundance fitness rises from -0.998 ± 0.15 to -0.274 ± 0.082.

RTSMTEEYRVPDGMVGLIIGRGGEQINKIQQDSWCKVQISPDSGGLPERSVSLTGAPESVQKAKMMLDDIVSR [G34W] and RTSMTEEYRVPDGMVGLIIGRGGEQINKIQQDSICKVQISPDSGGLPERSVSLTGAPESVQKAKMMLDDIVSR [G34I] are within error of each other in abundance fitness: -1.02 ± 0.087 for the first, -0.877 ± 0.2 for the second.

RTSMTEEYRVPDGMVGLIIGRGGEQINKIQQDSLCKVQISPDSGGLPERSVSLTGAPESVQKAKMMLDDIVSR [G34L] and RTSMTEEYRVPDGMVGLIIGRGGEQINKIQQDSRCKVQISPDSGGLPERSVSLTGAPESVQKAKMMLDDIVSR [G34R] are within error of each other in abundance fitness: -0.396 ± 0.057 for the first, -0.307 ± 0.043 for the second.

RTSMTEEYRVPDGMVGLIIGRGGEQINKIQQDSECKVQISPDSGGLPERSVSLTGAPESVQKAKMMLDDIVSR [G34E] and RTSMTEEYRVPDGMVGLIIGRGGEQINKIQQDSNCKVQISPDSGGLPERSVSLTGAPESVQKAKMMLDDIVSR [G34N] are within error of each other in abundance fitness: -0.243 ± 0.056 for the first, -0.219 ± 0.1 for the second.

Going from RTSMTEEYRVPDGMVGLIIGRGGEQINKIQQDSVCKVQISPDSGGLPERSVSLTGAPESVQKAKMMLDDIVSR [G34V] to RTSMTEEYRVPDGMVGLIIGRGGEQINKIQQDSTCKVQISPDSGGLPERSVSLTGAPESVQKAKMMLDDIVSR [G34T], the abundance fitness rises from -0.96 ± 0.061 to -0.537 ± 0.07.

First: RTSMTEEYRVPDGMVGLIIGRGGEQINKIQQDSACKVQISPDSGGLPERSVSLTGAPESVQKAKMMLDDIVSR [G34A]
Second: RTSMTEEYRVPDGMVGLIIGRGGEQINKIQPDSGCKVQISPDSGGLPERSVSLTGAPESVQKAKMMLDDIVSR [Q31P]
The abundance fitness of the first is higher: -0.365 ± 0.049 for the first, -0.98 ± 0.065 for the second.

RTSMTEEYRVPDGMVGLIIGRGGEQINKIQVDSGCKVQISPDSGGLPERSVSLTGAPESVQKAKMMLDDIVSR [Q31V] and RTSMTEEYRVPDGMVGLIIGRGGEQINKIQFDSGCKVQISPDSGGLPERSVSLTGAPESVQKAKMMLDDIVSR [Q31F] are within error of each other in abundance fitness: -0.207 ± 0.05 for the first, -0.105 ± 0.096 for the second.

RTSMTEEYRVPDGMVGLIIGRGGEQINKIQRDSGCKVQISPDSGGLPERSVSLTGAPESVQKAKMMLDDIVSR [Q31R] and RTSMTEEYRVPDGMVGLIIGRGGEQINKIQTDSGCKVQISPDSGGLPERSVSLTGAPESVQKAKMMLDDIVSR [Q31T] are within error of each other in abundance fitness: -0.069 ± 0.039 for the first, 0.015 ± 0.057 for the second.

RTSMTEEYRVPDGMVGLIIGRGGEQINKIQEDSGCKVQISPDSGGLPERSVSLTGAPESVQKAKMMLDDIVSR [Q31E] and RTSMTEEYRVPDGMVGLIIGRGGEQINKIQIDSGCKVQISPDSGGLPERSVSLTGAPESVQKAKMMLDDIVSR [Q31I] are within error of each other in abundance fitness: -0.08 ± 0.058 for the first, -0.135 ± 0.097 for the second.

RTSMTEEYRVPDGMVGLIIGRGGEQINKIQYDSGCKVQISPDSGGLPERSVSLTGAPESVQKAKMMLDDIVSR [Q31Y] and RTSMTEEYRVPDGMVGLIIGRGGEQINKIQKDSGCKVQISPDSGGLPERSVSLTGAPESVQKAKMMLDDIVSR [Q31K] are within error of each other in abundance fitness: -0.166 ± 0.13 for the first, -0.137 ± 0.08 for the second.

First: RTSMTEEYRVPDGMVGLIIGRGGEQINKIQMDSGCKVQISPDSGGLPERSVSLTGAPESVQKAKMMLDDIVSR [Q31M]
Second: RTSMTEEYRVPDGMVGLIIGRGGEQINKIQWDSGCKVQISPDSGGLPERSVSLTGAPESVQKAKMMLDDIVSR [Q31W]
The abundance fitness of the first is higher: -0.073 ± 0.071 for the first, -0.316 ± 0.054 for the second.

RTSMTEEYRVPDGMVGLIIGRGGEQINKIQHDSGCKVQISPDSGGLPERSVSLTGAPESVQKAKMMLDDIVSR [Q31H] and RTSMTEEYRVPDGMVGLIIGRGGEQINKIQSDSGCKVQISPDSGGLPERSVSLTGAPESVQKAKMMLDDIVSR [Q31S] are within error of each other in abundance fitness: -0.005 ± 0.087 for the first, -0.136 ± 0.048 for the second.

RTSMTEEYRVPDGMVGLIIGRGGEQINKIQQASGCKVQISPDSGGLPERSVSLTGAPESVQKAKMMLDDIVSR [D32A] and RTSMTEEYRVPDGMVGLIIGRGGEQINKIQQESGCKVQISPDSGGLPERSVSLTGAPESVQKAKMMLDDIVSR [D32E] are within error of each other in abundance fitness: -0.006 ± 0.05 for the first, -0.101 ± 0.061 for the second.

RTSMTEEYRVPDGMVGLIIGRGGEQINKIQQYSGCKVQISPDSGGLPERSVSLTGAPESVQKAKMMLDDIVSR [D32Y] and RTSMTEEYRVPDGMVGLIIGRGGEQINKIQQISGCKVQISPDSGGLPERSVSLTGAPESVQKAKMMLDDIVSR [D32I] are within error of each other in abundance fitness: -0.167 ± 0.11 for the first, -0.12 ± 0.15 for the second.

In the case of RTSMTEEYRVPDGMVGLIIGRGGEQINKIQQQSGCKVQISPDSGGLPERSVSLTGAPESVQKAKMMLDDIVSR [D32Q], the abundance fitness is reported as 0.025 ± 0.06.
